The numbers were not newly measured in PMC2749146, which cites them from elsewhere.

For the series, the system named is Cys. In words: UV-vis. As to conditions: Reduced; the protein unfolds below pH 3, so deprotonation and unfolding overlap.

Turning to DsbA (EcDsbA) (Escherichia coli), the pKa result was “∼3.5”.
